Assay: soluble on expression in E. coli; label from the status in PepcDB or PDB records

| Sequence | soluble on expression in E. coli |
| --- | --- |
| MAKTLAQGRKPGSGRKPGKGKTLREGRKPGSGRRRRQDTGGKETDGSQQDQESRLISSRDMEAVDALRELTHSPSSHSAHNSSAAPPPHAAAASTSLPPSLDYTHQSF | soluble |
| MGSDKIHHHHHHMETITKKANLSLLELPSGGEESLFCRLYSPALAGPAPLIVLFHGFPGKQLNMDWAVQLQNLSFHVLVTSYRGTIGSPGAFRFRHVLEDATAIMQHVVSPEFTQAHDISADQISIVGHSMGGFAGLHAFIDVPDIAHYIGISPFNFGLIGQLVLDYPEHEEALQGVLSRGAQFLSHTDGDILLDELKRHHATWNLLSLKEQLGTRSALLVTSERDETSIKSLHHDLLQDASAFEQIIVDSDHNYIENREDAFRAWTTWLRRR | not soluble |
| MGSDKIHHHHHHMQQGQMAYDRAITVFSPDGRLFQVEYAREAVKKGSTALGMKFANGVLLISDKKVRSRLIEQNSIEKIQLIDDYVAAVTSGLVADARVLVDFARISAQQEKVTYGSLVNIENLVKRVADQMQQYTQYGGVRPYGVSLIFAGIDQIGPRLFDCDPAGTINEYKATAIGSGKDAVVSFLEREYKENLPEKEAVTLGIKALKSSLEEGEELKAPEIASITVGNKYRIYDQEEVKKFL | not soluble |
| MPDEKDKHEGTWLQWPHEYTYGEEYKKEVEPIWVKMASALTEGEKVHIVAYDQEEKERINNLLTDEGLNMEKIDFFIAPTDDVWARDSGPIFVYDSNKNLKILDPAFNGWGKKTPYKNDAQIRKNVSKQSGIERVDWGKFVLEGGAIELDSNGTALLTRSAVTNKNRNPDLSEKEIEKYISDLGVSNFIWLDGVPNLDITDFHIDGFAKFHNKSTIVTMKEDDLAEWGLSNKDMDTLLDAKNASGQKYKYEYLPLSKEKVALENGKTLDYKGSYINYYIGNTVVLVPNYNDPNDKIANDTIQKLYPDRKVVGIDVRELYKNGGMIHCVTQQQPIALKMAGDPLEHHHHHH | soluble |
| MKKSVDFIGVGTGPFNLSIAALSHQIEELNCLFFDEHPHFSWHPGMLVPDCHMQTVFLKDLVSAVAPTNPYSFVNYLVKHKKFYRFLTSRLRTVSREEFSDYLRWAAEDMNNLYFSHTVENIDFDKKSRLFLVQTSRGEYFARNICLGTGKQPYLPPCVKHVTQSCFHASEMNLRRPDLSGKRITVVGGGQSGADLFLNALRGEWGEAAEINWVSRRNNFNALDEAAFADEYFTPEYISGFSGLKEDIRHQLLDEQKMTSDGITADSLLTIYRELYHRFEVLRKPRNIRLLPSRSVTTLESSGPGWKLLMEHHLDRGRESLESDVVIFATGYRSALPQILPSLMPLITMHDKNTFKVRDDFTLEWSGPKENNIFAVNASMQTHGIAEPQLSLMAWRSARILNRVLGRDLFDLSMPPALIQWRSGSRKKPQPEAAALTHYTTNIQE | soluble |
| MYQLEKEPIVGAETFYVDGAANRETKLGKAGYVTNRGRQKVVTLTDTTNQKTELQAIYLALQDSGLEVNIVTDSQYALGIITQWIHNWKKRGWKTADKKPVKNVDLVNQIIEQLIKKEKVYLAWVPAHKGIGGNEQVDKLVSAGIRKVLF | soluble |
| MSELFKKLMDQIEMPLEMKNSRVFSSADIVEVKVYPESRIWDFRFSFETILPIDFYQELRSRLVTSFETADIKAVFDIEVENAEFSNELLQAYYQEAFKQPTCNSASFKSSFSHLTVSYTDGKVLISAPQFVNNDHFRKNHLPNLEKQFEAFGF | not soluble |
| MAHHHHHHMQTYHRHMTSSSNPVVIFVFDHQGSAVTDFWAPLLQSVSKGLDAFGIEVAHAPTSSEIGQQLLAAMNAGSGPIILFFQGVGDTPAEGGKGLKMPIAYDGNIDMAHIMSWGLSCISSSVTHRVHNDVDLARFFAQYPQYPALPHVLYFPSTSYTPGGYLALSQHFALDAVFGVVPNAFTAPNATHIAQRYNITSKDELPVLLVLHRSTADAGGGAGESDRVVRMPAAATSLSYREALAFLSTQITDTVAALVAKAESTQNQHFLEVAESRRVYMMGQLIERQHDIVEEERLQMAREPILVKDQAVWAKECVQLPKKHRCVAAFVDSAQDSAAKDNAVKVLSLVSVKLLEIMGREAQKVSLVVVDRQGSDAVREYFDVGHNGFPDVLFLSLDRPAKYYNFVGTFSAEGVTQFVASHDAQLTQKDVRGGHTFIPRMVPKLEEAVAVPRSGDEDKDDL | soluble |
| MFSEKFFTASFGPDDEQPAIKAAANNAAPIFHLFILEFLLFKYQLLSKDSEYPYLLIRAGDNNRPKKAERRDKASKMWSRNQEKHGSKKSEKSNQNKNFYVREFFSFGASSKKFPNHVFRDVF | not soluble |
| MGVEKTIVGIAGKIAAGKTTVAKFLEELGFCRISCSEPLLDILTGNVSEYSWVPEVNFKGEPTRENLIELGRLLKEKYGEDILIRLAIDKLRRCKNIAIDGVRSLGEVEAIKRMGGIIIYIEARAEVRFERLRKRCSEKDRGIKTLQDLLRFDEWEERLYSTTNIKEKADFVILNEGSLEELKKKVREILREHSN | not soluble |
| MKKLKMASCALVAGLMFSGLTPNAFAEDKISDVKSQINTQNDTLHKQQQERDELQKQMNDLNKTIQGLDKSVQENAAKLDETTKKVADTEQLIEKKNKDIAELQTKIAKREELLRKRLVALQEQPNTNVVTEVLVNSKNVADLVDRLTSVSKILESDEDIMKTQQEDQANVKKDVETVKTKQKELKEAQAQIETAKKELDAEKAKKATAVNDLSGKMDTVVTSMTSTESQLKDLEKQALQLQRIAEQEAQEKAAQEAAAQKQAEQAAKDAQAQPAQAAPAQPAAPANNGGQAQKEEPKKEEPKKEAPKKEDKKPEPTPGPAPAPGVIGKAQQYLGLPYVWGSASPSNGGFDCSGFISYVFGVGRQDVNGYWHSVSKVSSPQPGDLVFFQNTYKNGPSHIGIYVGNGQMIHAGDKGIAYSSLSSSYNQKHFLGYGRF | not soluble |
| SDCLIVVDTRAAIRRVNRAALTMLGYDEEQLLGMPVGVIFAWERDKERLRTEGLRCFVESIGSSPAEFTFLSSDERRTPVLLSASPMLGRD | not soluble |
| MEIPVIEPLFTKVTEDIPGAAGPVFDKNGDFYIVAPYVEVNGKPAGEILRIDLKTGKKTVICKPEVNGYGGIPIGCQCDRDANQLFVADMRLGLLVVQTDGTFEEIAKKDSEGRRMQGCAYCAFDYEGNLWITAPAGEVAPADFTISLQEKFGSIYCFTTDGQMIQVDTAFQAPAGIAVRHMNDGRPYQLIVAEQPTKKLWSYDIKGPAKIENKKVWGHIPGTHKGGAAGMDFDEDNNLLVANWGSSHIEVFGPDGGQPKMRIRCPFEKPSALHFKPQTKTIFVTEHENNAVWKFEWQRNGKKQYCETLKFGIFGSLEHHHHHH | soluble |
| MGSDKIHHHHHHMDDITPSDIQAQAIAAIRDWFHSRTDEQQVFRLFGFAGTGKSTVLKFALDDLGLSPHAEDRPGVVTATFTGKAALVLRRKGTPARTIHSLIYSVIEATDEEIEEAGKRITQAELNARGLIGFDRTAAEAAIEAMRQTLRDMKKPRFALNPDSPAASAKLIVLDEVSMVGDEMARDLMSFERPILVLGDPGQLPPIKGEGAFTQAAPDIMLTEIHRQAAESAIIRLATMAREGQPIGFGQYDDHAWKMRMADVTPQQALRGGQVICGRNTTRFQLNNALRRAAGFGGSYLPTGADEKVICLKNQNDLGLINGMFLTLADIVDEGSVYFSATVTDEVGTPIGPPAKDGKPGRLMLYKGHFEDHVALDPHRHDRDWRDKKKLTEATFGWAITCHKAQGSQWENVIVWDDGLGRTEQDRRRWLYTAITRAERGLVILA | not soluble |
| MGHHHHHHSHMKGFTATLFLWTLIFPSCSGGGGGKAWPTHVVCSDSGLEVLYQSCDPLQDFGFSVEKCSKQLKSNINIRFGIILREDIKELFLDLALMSQGSSVLNFSYPICEAALPKFSFCGRRKGEQIYYAGPVNNPEFTIPQGEYQVLLELYTEKRSTVACANATIMCS | not soluble |
| MSLRSEQEMMDIFLDFALNDERIRLVTLEGSRTNRNIPPDNFQDYDISYFVTDVESFKENDQWLEIFGKRIMMQKPEDMELFPPELGNWFSYIILFEDGNKLDLTLIPIREAEDYFANNDGLVKVLLDKDSFINYKVTPNDRQYWIKRPTAREFDDCCNEFWMVSTYVVKGLARNEILFAIDHLNEIVRPNLLRMMAWHIASQKGYSFSMGKNYKFMKRYLSNKEWEELMSTYSVNGYQEMWKSLFTCYALFRKYSKAVSEGLAYKYPDYDEGITKYTEGIYCSVKEGHHHHHH | soluble |
| MGSDKIHHHHHHVKQRVAVIGAGPGGLACAMLLAGRGIDVTVYEKQPIVGGRTSRVQVGDYQFDRGPTFLNMPHILENLFTSIDLDMKDYLDLKALDPMYTLYFNGGKDHFTMTTDRDRMKQTIEQHFPGNGEGYDRFMAEQALKLAKLMPILQTKHDKLTDYLSPRVITALPRLSLGRSLYDVLSDYFTSEELKYAFTFQAKYLGMSAWECPGGFSILSYMEHAYGVHHPIGGMNQIPEAMKRAVEELGGTVHLNTGISQLILDGTTATGVILESGEHVLYDDVVVGADFAHAMNHLVPEGVLKKWSRPKIDRKKFSCSTFMLYLGVNKSFDAPHHTIYFADDYEKNVREMTQTLELSDDFSFYVQNPSIIDSTLAPEGKSSLYVLVPVPNNYSELDWAIEGPKLRRRVLDALEHRSPYTGVEAAIEVEEMFTPDDWEAMGVHQGATFNLGHQLTQMMYFRPHNRFEELEHVYLVGGGTHPGSGLPTIFESARITADLLTSEVGVGK | not soluble |
| MGSDKIHHHHHHKTEEHEKIEVLYETTLNLIHLLVEQGVIKQEVADEMIRKAEQKAKASQQQAREQGGQPPAGEPKKGEVRVTYVPEHIKKEIRDQLREEVVGQAKQERWGNVNATPEWLDRFTLEGDIRLREQADFFGDRNAPAANFQAIGQQIDNTTKDSHHRERIRMRLGINANVTRGVDLGLRLTTGNVNGPAVTGDLMGGSPTSTLQTLGTYNSKFSFVLDQAYLKLSPWDWLTVSGGRFPNPFFVGTVGNIYTGTIGKAPHTIPTAGVVHTDLLWDADVNFEGLAVNLHPWKKQERTIKPFLNAGIFPLQKINQSETVKAKDKWFYGAQAGIEWVPEGADTKIRLGAAYYDFENISGVRNPNFGDTLFNQTAPLFRQKGNSLFNIDNDGDPTTNLWALASDYKIANATLVADYSRFKPIHVIGTLDYARNVGYDQDRILARTGQDIKPEINAYQARLTVGYPVISERHQWQVLGFYRRSERDSMLDAFTDSNYLLGGTNHKGYTIQGLYGVAHNTWVGLRYMSYDNISGLPLSIDSVNLDLNARF | not soluble |
| MIMFNYQQTSQSCVKCGKCIPSCTIYNIHPDEVTSPRGFIDLLGAYQRGELELDKNAKDIFEKCFLCTNCTYVCPNLLPTDQVIENVRAEIAQKFGIAWFKRAYFFLLRNRWLEHHHHHH | soluble |
| MRKLFIALTFLLVPACLSAQLGGKIYLQRADSLLQRVLSLYEVKKYGLLMETYPRNPKQQITYTANTGSEVTQQEVSFLWPYSAMVSGCVSLYKTSGNKKYKKLMDKQIKPGLDLYWDTTRQPECYQSYPAFAGQNDRYYDDNDWVAIDFCDYYAVTKNKEYLKKAIALHDYIYSGWSDELGGGIYWCEQKKESKNTCSNAPATVLCMKLYKLTKDKKYLDQAMATYQWTRDNLRDPSDFVYWDNKNLQGKIGYAKYTYNSGQMIQAGVLLYQATGDEQYLKDAQQTAKGSYEHFLKPQPTVKGEMKFFPSSPWFNVILFRGLKALYEVDKNDTYVKAMIDNADYAWQYTRDENGLLNNDWSGNRKDKFKSLLENSCMIELYSEISELLEHHHHHH | not soluble |
| MSLKERFSPKMLSDITGVSIRTLHYYHEKGLLVPQQMSANGYRYYNVQDISKLQYILFLKELDLTLKQIQIYFEGDSDFRTKILHDNFYHIVKKRDRLNDIICTLEHHFHQDNEEIEVTTMQNFNLNEQYEKEAASKYGDTHYYQAYKDKQKSKDESEQQNHFEEINKQLNMFFDDMNQLYLNKVSILEASGKIKKLLCILKEQVPNCDNQFLEYIAQIYIEDERFVKFINKQRERGLNLYISDAIKTFIKEGHHHHHH | soluble |

Source: the DeepSol protein solubility set
